# Measurements: PMC10258763
# Biological target: modifying region of human fatty acid synthase (hFASN) isolated by TEV cleavage of the engineered full-length protein (human) (UniProt P49327)
# Assay: cryo-EM structure; hFASN modifying region after TEV cleavage, 0.8 mg/mL, 1 mM NADPH, 1 mM DTT; also with 13.75 µM Denifanstat; plunge-frozen on holey gold grids, Titan Krios
# modifying region of human fatty acid synthase (hFASN) isolated by TEV cleavage of the engineered full-length protein, sequence (P49327 855-2511, change not shown): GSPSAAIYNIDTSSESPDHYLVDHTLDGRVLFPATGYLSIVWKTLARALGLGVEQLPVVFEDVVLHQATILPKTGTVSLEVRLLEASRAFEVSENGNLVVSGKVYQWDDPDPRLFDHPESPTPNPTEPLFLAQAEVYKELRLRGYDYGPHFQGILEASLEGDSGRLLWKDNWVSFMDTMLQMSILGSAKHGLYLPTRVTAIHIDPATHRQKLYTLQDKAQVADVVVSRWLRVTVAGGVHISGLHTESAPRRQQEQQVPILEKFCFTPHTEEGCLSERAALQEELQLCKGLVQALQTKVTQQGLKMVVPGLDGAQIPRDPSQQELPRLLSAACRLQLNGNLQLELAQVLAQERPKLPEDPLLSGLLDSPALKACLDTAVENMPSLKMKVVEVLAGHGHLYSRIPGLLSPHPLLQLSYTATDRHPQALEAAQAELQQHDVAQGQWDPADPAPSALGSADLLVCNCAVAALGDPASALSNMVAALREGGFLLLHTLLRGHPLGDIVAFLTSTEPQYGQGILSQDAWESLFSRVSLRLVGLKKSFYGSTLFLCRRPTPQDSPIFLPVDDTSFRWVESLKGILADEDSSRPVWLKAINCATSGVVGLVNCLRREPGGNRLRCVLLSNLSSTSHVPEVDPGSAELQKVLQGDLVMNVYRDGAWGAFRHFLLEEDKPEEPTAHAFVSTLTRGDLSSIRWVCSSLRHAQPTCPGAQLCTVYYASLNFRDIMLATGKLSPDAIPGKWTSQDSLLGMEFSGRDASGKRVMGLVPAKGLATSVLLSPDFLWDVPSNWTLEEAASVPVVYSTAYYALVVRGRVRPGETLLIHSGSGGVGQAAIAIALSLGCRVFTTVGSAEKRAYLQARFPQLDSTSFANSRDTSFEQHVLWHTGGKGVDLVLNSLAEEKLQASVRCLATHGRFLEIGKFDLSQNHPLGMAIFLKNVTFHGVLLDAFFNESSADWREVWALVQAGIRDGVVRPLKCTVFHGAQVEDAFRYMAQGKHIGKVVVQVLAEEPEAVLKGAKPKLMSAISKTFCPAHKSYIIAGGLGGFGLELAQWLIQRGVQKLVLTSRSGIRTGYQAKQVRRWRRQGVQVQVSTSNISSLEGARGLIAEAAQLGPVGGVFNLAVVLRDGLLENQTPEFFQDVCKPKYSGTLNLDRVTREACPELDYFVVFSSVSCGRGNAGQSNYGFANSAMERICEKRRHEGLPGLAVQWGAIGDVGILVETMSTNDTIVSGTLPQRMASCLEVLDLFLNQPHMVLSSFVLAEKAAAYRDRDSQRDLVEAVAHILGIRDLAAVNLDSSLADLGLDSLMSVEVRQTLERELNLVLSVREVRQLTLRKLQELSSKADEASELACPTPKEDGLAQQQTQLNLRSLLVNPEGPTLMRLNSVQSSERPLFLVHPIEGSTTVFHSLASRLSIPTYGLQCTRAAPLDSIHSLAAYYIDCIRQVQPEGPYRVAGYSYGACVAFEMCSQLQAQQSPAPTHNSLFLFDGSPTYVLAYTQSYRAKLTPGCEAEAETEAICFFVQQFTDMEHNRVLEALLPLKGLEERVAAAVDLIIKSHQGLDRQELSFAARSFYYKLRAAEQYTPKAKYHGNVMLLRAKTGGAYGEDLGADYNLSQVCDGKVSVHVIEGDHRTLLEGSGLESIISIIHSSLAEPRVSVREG
substance,measurement,value
modifying region of human fatty acid synthase (hFASN) isolated by TEV cleavage of the engineered full-length protein (from UniProt P49327 855-2511) (domain or fragment),stoichiometry N,2
